Experimental data as given in paper PMC6774396 (Frontiers in Immunology, 2019).

Legend:
[1] = biological target: moesin FERM domain, 1-297 (UniProt P26038); test: SPR competition assay
[2] = tested on: THP-1 cells over TNF-α-activated HUVEC; test: L-selectin-GFP/RFP clustering in mid-TEM under flow, FLIM/FRET; type: cell-based, human
Experimental: (A) Line scanning confocal microscopic image of THP-1 cells, stably expressing GFP, captured in mid-TEM—following 15 min of perfusion over TNF-α-activated HUVEC monolayers. […] “Top” and “Base,” respectively, represent the apical and basolateral aspect of the endothelium (x63 objective lens, Leica SP5). Scale bar = 24 μm. (B,C) THP-1 cells expressing WT, SSAA, or SSDD L-selectin-GFP/RFP were perfused over TNF-α-activated HUVEC and fixed after 15 min of perfusion. […] Lifetime images taken of at least 45 cells and analyzed over 3 independent experiments was quantified and expressed as FRET efficiency. Images representative of three independent experiments, where at least 45 cells of each group was analyzed at two optical sections, Top and Base, as indicated in the cartoon of a yellow monocyte captured in mid-TEM crossing a red endothelium. Individual GFP channel and lifetime images are provided for each cell line. The lifetime of fluorescence is expressed in a pseudocolour scale from red (low lifetime with a very high probability of interaction) to blue (high lifetime with a very low probability of interaction). Statistics: unpaired student t-test ***p ≤ 0.001.
Cells expressing WT L-selectin-GFP/RFP were treated for 30 min with 10 μM TAPI-0 and subsequently perfused over TNF-activated HUVEC monolayers for 15 min prior to fixation and analysis for FRET by FLIM (see Materials and Methods for more detail). […] (B) Images representative of three independent experiments, where at least 45 cells of each group were analyzed at two optical sections–non-transmigrated uropods (Top) and transmigrated pseudopods (Base). GFP fluorescence channel and lifetime images are provided for each cell line. The lifetime of fluorescence is expressed in a pseudocolour scale from red (low lifetime with a very high probability of interaction) to blue (high lifetime with a very low probability of interaction). […]
FLIM measurement of FRET was performed with a multiphoton microscope system as described previously ([8], [23]). […] Fluorescence lifetime imaging capability was provided by time-correlated, single-photon counting electronics (SPC 700; Becker & Hickl). […] Data were analyzed as previously described ([65]). The FRET efficiency is related to the molecular separation of donor and acceptor and the fluorescence lifetime of the interacting fraction by: […]
where ηFRET is the FRET efficiency, R0 is the Förster radius, r is the molecular separation, τFRET is the lifetime of the interacting fraction and τd is the lifetime of the donor in the absence of an acceptor. The donor- only control is used as the reference against which all of other lifetimes are calculated in each experiment. τFRET and τd can also be taken to be the lifetime of the interacting fraction and non-interacting fraction, respectively. […]

[3] = tested on: THP-1 cells over TNF-α-activated HUVEC; test: Pseudopod protrusion scoring in TEM under flow; type: cell-based, human
Experimental: (A) The number of protrusions formed over this period was scored as: zero, one, two, or >2. (B) The percentages of cells bearing these protrusions were scored at specific time points: 6 min (blue bars), 15 min (green bars), or 25 min (red bars). Supplementary Videos 2, 3, 4 provide examples of cells producing a range of protrusions as TEM proceeds. Data represent SEM of 3 fields of view per flow experiment, conducted on three separate occasions, and at least 180 cells analyzed per group. Values of the vertical lines indicate the differences in protrusion number (specifically “zero” and “two”) corresponding to each of the cell lines, for which statistical significance is shown in Table 1.
All flow experiments were performed using a 35 mm diameter Glycotech parallel plate flow chamber. Perfusion experiments were performed at 1.5 dyn/cm^2 using a Harvard Apparatus 2000 PHD syringe pump. Perfusion media consisted of: RPMI supplemented with L-glutamine, 10% FCS, 1% penicillin/streptomycin, 50 μM β-mercaptoethanol, and 25 mM HEPES. Human Umbilical Vein Endothelial Cells (HUVEC–Lonza) were seeded onto 35 mm diameter glass coverslips (no. 1 thickness; VWR) that were pre-coated with 10 μg/mL fibronectin (37°C for at least 1 h). Before each perfusion assay, HUVEC were stimulated overnight (16 h) with 10 ng/mL carrier-free recombinant human TNF-α (R&D Systems). Each perfusion assay was performed by injecting a bolus of cells for 6 min, followed by just perfusion media (without cells) for the […]. THP-1 cells were perfused at a density of 0.5 ×10^6 cells per mL. THP-1 cells treated with 10 μM TAPI-0 required a preincubation time of 10 min at 37°C before perfusion over TNF-α-activated HUVEC. Note that 10 μM TAPI-0 was also supplemented in the perfusate. Stills were acquired once every 10 seconds using 10 × objective lens.

Question: With “L-selectin cytoplasmic tail, 356-372 (from UniProt P14151) pS367 tail peptide” as the molecule, how does the “binding against the reference” value ([1]; reference: non-phosphorylated tail peptide (NPP), sites S367) read?
Answer: The value was “same”.

Question: For `CC(C)C[C@H](CC(=O)NO)C(=O)N[C@@H](Cc1ccc2ccccc2c1)C(=O)N[C@@H](C)C(N)=O` [TAPI-0, reference compound], which “subcellular distribution of WT L-selectin clustering during TEM with sheddase inhibitor” value ([2]; 10 μM TAPI-0 pretreatment and in perfusate, WT L-selectin-GFP/RFP, 15 min perfusion) is on record?
Answer: Its value is “a large majority of L-selectin clustering had relocated from transmigrated pseudopods to non-transmigrated uropods”.

Question: How did the “binding against the reference” value ([1]; reference: mouse non-phosphorylated tail peptide (NPP), sites S364) turn out when “mouse L-selectin cytoplasmic tail (from UniProt P18337) mouse pS364 tail peptide” was run?
Answer: The value was “lost”.

Question: For “L-selectin cytoplasmic tail, 356-372 (from UniProt P14151) pS364 tail peptide”, which “binding against the reference” value ([1]; reference: non-phosphorylated tail peptide (NPP), sites S364) is on record?
Answer: The value was “lost”.

B1: SSDD: L-selectin with phospho-mimicking aspartates at Ser^364 and Ser^367 (protein)
chain: WTYHYSEKPMNWQRARRFCRDNYTDLVAIQNKAEIEYLEKTLPFSRSYYWIGIRKIGGIWTWVGTNKSLTEEAENWGDGEPNNKKNKEDCVEIYIKRNKDAGKWNDDACHKLKAALCYTASCQPWSCSGHGECVEIINNYTCNCDVGYYGPQCQFVIQCEPLEAPELGTMDCTHPLGNFSFSSQCAFSCSEGTNLTGIEETTCGPFGNWSSPEPTCQVIQCEPLSAPDLGIMNCSHPLASFSFTSACTFICSEGTELIGKKKTICESSGIWSNPSPICQKLDKSFSMIKEGDYNPLFIPVAVMVTAFSGLAFIIWLARRLKKGKKDKRDMNDPY
modifications: left off: eGFP (donor copy) or mCherry (acceptor copy, called RFP), C-terminal, kept
Question: Which “subcellular distribution of L-selectin clustering during TEM (FLIM/FRET)” value ([2]; 15 min perfusion at 1.5 dyn/cm^2, fixed in mid-TEM, Top = non-transmigrated uropods, Base = transmigrated pseudopods, at least 45 cells, 3 experiments, no TAPI-0) does the source give for B1 here?
Answer: Its value is “lacked any signs of clustering during TEM”.

B2: S364A: L-selectin with Ser^364 mutated to alanine, GFP-tagged, expressed in THP-1 cells (protein, UniProt P14151 39-372, looked up, variant S364A)
L-selectin: WTYHYSEKPMNWQRARRFCRDNYTDLVAIQNKAEIEYLEKTLPFSRSYYWIGIRKIGGIWTWVGTNKSLTEEAENWGDGEPNNKKNKEDCVEIYIKRNKDAGKWNDDACHKLKAALCYTASCQPWSCSGHGECVEIINNYTCNCDVGYYGPQCQFVIQCEPLEAPELGTMDCTHPLGNFSFSSQCAFSCSEGTNLTGIEETTCGPFGNWSSPEPTCQVIQCEPLSAPDLGIMNCSHPLASFSFTSACTFICSEGTELIGKKKTICESSGIWSNPSPICQKLDKSFSMIKEGDYNPLFIPVAVMVTAFSGLAFIIWLARRLKKGKKAKRSMNDPY
modifications: C-terminal GFP tag
Question: For B2, which “protrusive activity profile in TEM (in words)” value ([3]; 6, 15 and 25 min of flow over TNF-α-activated HUVEC) is on record?
Answer: The value was “produced a profile of protrusive activity that was similar to cells expressing WT L-selectin”.

Question: And the “cells with 2 protrusions” value ([3]; 15 min time point, mean of 3 fields of view per flow experiment, three occasions, at least 180 cells per group, significance ** S367A p ≤ 0.01 (Tukey), % printed)?
Answer: The value was 32.9%.

Question: What about the “cells with 0 protrusions” value ([3]; 15 min time point, mean of 3 fields of view per flow experiment, three occasions, at least 180 cells per group, significance *** S367A p ≤ 0.001, ** SSAA p ≤ 0.01 (Tukey), % printed) of the same molecule?
Answer: The value was 11.3%.
